From the supplement of paper PMC5998384

How the values were obtained:
HeLa Kyoto [1] = assay: solubility change mitosis vs G1/S (difference of NP-40 vs SDS log2 ratios) (log2 ratio difference); higher = more soluble in mitosis
HeLa Kyoto [2] = assay: solubility in G1/S (NP-40 vs SDS abundance) (log2 ratio); higher = more soluble; settings: cell cycle stage: G1/S
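Wherever solubility change mitosis vs G1/S (difference of NP-40 vs SDS log2 ratios) is given: synchronized HeLa Kyoto cells (double thymidine block for G1/S, nocodazole release for mitosis), protein amounts in NP-40 versus SDS lysates quantified by mass spectrometry, three biological replicates.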
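Wherever solubility in G1/S (NP-40 vs SDS abundance) is given: HeLa Kyoto cells arrested at G1/S by double thymidine block, proteins quantified by TMT10plex mass spectrometry in mild NP-40 versus SDS extracts, three biological replicates.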

| Sequence | solubility change mitosis (log2) (HeLa Kyoto [1]) | solubility in G1/S (log2) (HeLa Kyoto [2]) |
| --- | --- | --- |
| MILTKAQYDEIAQCLVSVPPTRQSLRKLKQRFPSQSQATLLSIFSQEYQKHIKRTHAKHHTSEAIESYYQRYLNGVVKNGAAPVLLDLANEVDYAPSLMARLILERFLQEHEETPPSKSIINSMLRDPSQIPDGVLANQVYQCIVNDCCYGPLVDCIKHAIGHEHEVLLRDLLLEKNLSFLDEDQLRAKGYDKTPDFILQVPVAVEGHIIHWIESKASFGDECSHHAYLHDQFWSYWNRFGPGLVIYWYGFIQELDCNRERGILLKACFPTNIVTLCHSIA [C15ORF41] | 0.0246 | 0.176 |
| MIPLEKPGSGGSSPGATSGSGRAGRGLSGPCRPPPPPQARGLLTEIRAVVRTEPFQDGYSLCPGRELGRGKFAVVRKCIKKDSGKEFAAKFMRKRRKGQDCRMEIIHEIAVLELAQDNPWVINLHEVYETASEMILVLEYAAGGEIFDQCVADREEAFKEKDVQRLMRQILEGVHFLHTRDVVHLDLKPQNILLTSESPLGDIKIVDFGLSRILKNSEELREIMGTPEYVAPEILSYDPISMATDMWSIGVLTYVMLTGISPFLGNDKQETFLNISQMNLSYSEEEFDVLSESAVDFIRTLLVKKPEDRATAEECLKHPWLTQSSIQEPSFRMEKALEEANALQEGHSVPEINSDTDKSETKESIVTEELIVVTSYTLGQCRQSEKEKMEQKAISKRFKFEEPLLQEIPGEFIY [STK17A] | -0.0546 | 0.0848 |
| MKKSYSGGTRTSSGRLRRLGDSSGPALKRSFEVEEVETPNSTPPRRVQTPLLRATVASSTQKFQDLGVKNSEPSARHVDSLSQRSPKASLRRVELSGPKAAEPVSRRTELSIDISSKQVENAGAIGPSRFGLKRAEVLGHKTPEPAPRRTEITIVKPQESAHRRMEPPASKVPEVPTAPATDAAPKRVEIQMPKPAEAPTAPSPAQTLENSEPAPVSQLQSRLEPKPQPPVAEATPRSQEATEAAPSCVGDMADTPRDAGLKQAPASRNEKAPVDFGYVGIDSILEQMRRKAMKQGFEFNIMVVGQSGLGKSTLINTLFKSKISRKSVQPTSEERIPKTIEIKSITHDIEEKGVRMKLTVIDTPGFGDHINNENCWQPIMKFINDQYEKYLQEEVNINRKKRIPDTRVHCCLYFIPATGHSLRPLDIEFMKRLSKVVNIVPVIAKADTLTLEERVHFKQRITADLLSNGIDVYPQKEFDEDSEDRLVNEKFREMIPFAVVGSDHEYQVNGKRILGRKTKWGTIEVENTTHCEFAYLRDLLIRTHMQNIKDITSSIHFEAYRVKRLNEGSSAMANGMEEKEPEAPEM [SEPT9] | -0.0335 | 0.198 |
| MKLLRRAWRRRAALGLGTLALCGAALLYLARCAAEPGDPRAMSGRSPPPPAPARAAAFLAVLVASAPRAAERRSVIRSTWLARRGAPGDVWARFAVGTAGLGAEERRALEREQARHGDLLLLPALRDAYENLTAKVLAMLAWLDEHVAFEFVLKADDDSFARLDALLAELRAREPARRRRLYWGFFSGRGRVKPGGRWREAAWQLCDYYLPYALGGGYVLSADLVHYLRLSRDYLRAWHSEDVSLGAWLAPVDVQREHDPRFDTEYRSRGCSNQYLVTHKQSLEDMLEKHATLAREGRLCKREVQLRLSYVYDWSAPPSQCCQRREGIP [B3GALT6] | 0.135 | -0.748 |
| MKMEEAVGKVEELIESEAPPKASEQETAKEEDGSVELESQVQKDGVADSTVISSMPCLLMELRRDSSESQLASTESDKPTTGRVYESDSSNHCMLSPSSSGHLADSDTLSSAEENEPSQAETAVEGDPSGVSGATVGRKSRRSRSESETSTMAAKKNRQSSDKQNGRVAKVKGHRSQKHKERIRLLRQKREAAARKKYNLLQDSSTSDSDLTCDSSTSSSDDDEEVSGSSKTITAEIPDGPPVVAHYDMSDTNSDPEVVNVDNLLAAAVVQEHSNSVGGQDTGATWRTSGLLEELNAEAGHLDPGFLASDKTSAGNAPLNEEINIASSDSEVEIVGVQEHARCVHPRGGVIQSVSSWKHGSGTQYVSTRQTQSWTAVTPQQTWASPAEVVDLTLDEDSRRKYLL [C18ORF25] | -0.243 | -0.0209 |
| MKRQSERDSSPSGRGSSSSAKRPREREREAEAGGRRAAHKASGGAKHPVPARARDKPRGSGSGGGGHRDGRGTGDANHRASSGRSSGSGAGGGGRGGKASGDPGASGMSPRASPLPPPPPPPGAEPACPGSSAAAPEYKTLLISSLSPALPAEHLEDRLFHQFKRFGEISLRLSHTPELGRVAYVNFRHPQDAREARQHALARQLLLYDRPLKVEPVYLRGGGGSSRRSSSSSAAASTPPPGPPAPADPLGYLPLHGGYQYKQRSLSPVAAPPLREPRARHAAAAFALDAAAAAAVGLSRERALDYYGLYDDRGRPYGYPAVCEEDLMPEDDQRATRNLFIGNLDHSVSEVELRRAFEKYGIIEEVVIKRPARGQGGAYAFLKFQNLDMAHRAKVAMSGRVIGRNPIKIGYGKANPTTRLWVGGLGPNTSLAALAREFDRFGSIRTIDHVKGDSFAYIQYESLDAAQAACAKMRGFPLGGPDRRLRVDFAKAEETRYPQQYQPSPLPVHYELLTDGYTRHRNLDADLVRDRTPPHLLYSDRDRTFLEGDWTSPSKSSDRRNSLEGYSRSVRSRSGERWGADGDRGLPKPWEERRKRRSLSSDRGRTTHSPYEERSRTKGSGQQSERGSDRTPERSRKENHSSEGTKESSSNSLSNSRHGAEERGHHHHHHEAADSSHGKKARDSERNHRTTEAEPKPLEEPKHETKKLKNLSEYAQTLQLGWNGLLVLKNSCFPTSMHILEGDQGVISSLLKDHTSGSKLTQLKIAQRLRLDQPKLDEVTRRIKQGSPNGYAVLLATQATPSGLGTEGMPTVEPGLQRRLLRNLVSYLKQKQAAGVISLPVGGSKGRDGTGMLYAFPPCDFSQQYLQSALRTLGKLEEEHMVIVIVRDTA [RBM15B] | 0.504 | -0.311 |
| MLGTVKMEGHETSDWNSYYADTQEAYSSVPVSNMNSGLGSMNSMNTYMTMNTMTTSGNMTPASFNMSYANPGLGAGLSPGAVAGMPGGSAGAMNSMTAAGVTAMGTALSPSGMGAMGAQQAASMNGLGPYAAAMNPCMSPMAYAPSNLGRSRAGGGGDAKTFKRSYPHAKPPYSYISLITMAIQQAPSKMLTLSEIYQWIMDLFPYYRQNQQRWQNSIRHSLSFNDCFVKVARSPDKPGKGSYWTLHPDSGNMFENGCYLRRQKRFKCEKQPGAGGGGGSGSGGSGAKGGPESRKDPSGASNPSADSPLHRGVHGKTGQLEGAPAPGPAASPQTLDHSGATATGGASELKTPASSTAPPISSGPGALASVPASHPAHGLAPHESQLHLKGDPHYSFNHPFSINNLMSSSEQQHKLDFKAYEQALQYSPYGSTLPASLPLGSASVTTRSPIEPSALEPAYYQGVYSRPVLNTS [FOXA1] | 0.0934 | 0.392 |
| MLPGVGVFGTSLTARVIIPLLKDEGFAVKALWGRTQEEAEELAKEMSVPFYTSRIDEVLLHQDVDLVCINLPPPLTRQIAVKTLGIGKNVICDRTATPLDAFRMTSAAHYYPKLMSIMGNVLRFLPAFVRMKQLIEEGYVGEPLVCEVQVHGGSLLGKKYNWSCDDLMGGGGLHSVGTYIIDLLTFLTGQKAVKVHGLLKTFVKQTDHIKGIRQITSDDFCTFQMVLEGGVCCTVTLNFNVPGEFKQDVTVVGSAGRLLAVGTDLYGQRNSAPEQELLVQDATPVSNSLLPEKAFSDIPSPYLRGTIKMMQAVRQAFQDQDDRRTWDGRPLTMAATFDDCLYALCVVDTIKRSSQTGEWQNIAIMTEEPELSPAYLISEAMRRSRMSLYC [GFOD1] | -0.244 | -0.0575 |
| MLPPMALPSVSWMLLSCLMLLSQVQGEEPQRELPSARIRCPKGSKAYGSHCYALFLSPKSWTDADLACQKRPSGNLVSVLSGAEGSFVSSLVKSIGNSYSYVWIGLHDPTQGTEPNGEGWEWSSSDVMNYFAWERNPSTISSPGHCASLSRSTAFLRWKDYNCNVRLPYVCKFTD [PAP1] | -0.21 | 0.102 |
| MLRSTGFFRAIDCPYWSGAPGGPCRRPYCHFRHRGARGSGAPGDGGEAPPAAGLGYDPYNPELPKPPAQRENGTLGLGEEPRPDVLELELVNQAIEAVRSEVELEQRRYRELLETTREHRSAEAPALAPRGPNASPTVGPDEDAFPLAFDYSPGSHGLLSPDAGYQPTPLAAPAEPGSKYSLASLDRGQGRGGGGGGALEYVPKAVSQPRRHSRPVPSGKYVVDNSRPPTDLEYDPLSNYSARHLSRASSRDERAAKRPRGSRGSEPYTPAPKKLCDPFGSCDARFSDSEDEAATVPGNEPTTASTPKARADPEIKATGQPPSKEGLEAEGGGLRETKETAVQCDVGDLQPPPAKPASPAQVQSSQDGGCPKEGKPKKKKTGAPPAPSCKDGAQGKDKTKDKGRGRPVEKPRADKKGPQASSPRRKAERPEGTKKKPSSATPVATSGKGRPDRPARRPSPTSGDSRPAAGRGPPRPLQLPDRKSTKAPSGKLVERKARSLDEGASQDAPKLKKRALSHADLFGDESEDEAAGPGVPSVWPSALPSLSSDSDSDSDSSLGFPEAQGPPKRLKASPPPSPAPSSSSSSSSSTSSAGADVDYSALEKEVDFDSDPMEECLRIFNESTSVKTEDRGRLARQPPKEEKSEEKGLSGLTTLFPGQKRRISHLSKQGQEVEPPRRGPAVPPARPPTAQEVCYLRAQQAQRASASLLQAPARLAEKSPSVHISAPGEKRRIAHIPNPRLAAAPTGAKRTLAASGSQSSNGPEPGGQQLKTRTLSGMASKTTTTIIPKRIAHSPSLQSLKKPIIPKEFGGKVPTVIRQRYLNLFIEECLKFCTSNQEAIEKALNEEKVAYDRSPSKNIYLNVAVNTLKKLRGLAPSAVPGLSKTSGRRVVSHEVVLGGRLAAKTSFSLSRPSSPRVEDLKGAALYSRLREYLLTQDQLKENGYPFPHPERPGGAIIFTAEEKRPKDSSCRTCCRCGTEYLVSSSGRCIRDEECYYHWGRLRRNRVAGGWETQYMCCSAAAGSVGCQVAKQHVQDGRKERLEGFVKTFEKELSGDTHPGIYALDCEMSYTTYGLELTRVTVVDTDVHVVYDTFVKPDNEIVDYNTRFSGVTEADLADTSVTLRDVQAVLLSMFSADTILIGHSLESDLLALKVIHSTVVDTSVLFPHRLGLPYKRSLRNLMADYLRQIIQDNVDGHSSSEDAGACMHLVIWKVREDAKTKR [REXO1] | -0.0256 | -0.201 |
| MLRVVSWNINGIRRPLQGVANQEPSNCAAVAVGRILDELDADIVCLQETKVTRDALTEPLAIVEGYNSYFSFSRNRSGYSGVATFCKDNATPVAAEEGLSGLFATQNGDVGCYGNMDEFTQEELRALDSEGRALLTQHKIRTWEGKEKTLTLINVYCPHADPGRPERLVFKMRFYRLLQIRAEALLAAGSHVIILGDLNTAHRPIDHWDAVNLECFEEDPGRKWMDSLLSNLGCQSASHVGPFIDSYRCFQPKQEGAFTCWSAVTGARHLNYGSRLDYVLGDRTLVIDTFQASFLLPEVMGSDHCPVGAVLSVSSVPAKQCPPLCTRFLPEFAGTQLKILRFLVPLEQSPVLEQSTLQHNNQTRVQTCQNKAQVRSTRPQPSQVGSSRGQKNLKSYFQPSPSCPQASPDIELPSLPLMSALMTPKTPEEKAVAKVVKGQAKTSEAKDEKELRTSFWKSVLAGPLRTPLCGGHREPCVMRTVKKPGPNLGRRFYMCARPRGPPTDPSSRCNFFLWSRPS [APEX2] | -0.0093 | 0.0896 |
